PMC5940254 (The Journal of General Physiology, 2018)
Read-outs that look alike come from different tables or passages of the source.

Tests used:
Test in all cases: single-molecule pull-down
[1] = biological target: Ci-VSP phosphatase-only protein (PDo) (Ciona intestinalis)
[2] = biological target: Ci-VSP phosphatase-only protein (PDo) (Ciona intestinalis); remark: listed apart in the source
[3] = biological target: Ci-VSP voltage-sensing domain only protein (VSDo) (Ciona intestinalis)
[4] = biological target: Ci-VSP voltage-sensing domain only protein (VSDo) (Ciona intestinalis); remark: listed apart in the source
[5] = biological target: the molecule itself

In the case of “Ci-VSP phosphatase-only protein (PDo) (domain or fragment)”, the percent of spots bleaching in a single step [1] is reported as 80%, the stoichiometry N [1] is reported as 2 and the percent of spots bleaching in a single step [2] is reported as 57%. For the same molecule, the percent of spots bleaching in two steps [2] was 34%.

For “Ci-VSP voltage-sensing domain only protein (VSDo) (domain or fragment)”, the percent of spots bleaching in a single step [3] was 65%, the stoichiometry N [3] was 2 and the percent of spots bleaching in a single step [4] was 37%. It also gave a percent of spots bleaching in two steps [4] of 55%.

B1: ASIC1A channel, HA- and GFP-tagged (trimer control) (natural protein)
chain: MELKTEEEEVGGVQPVSIQAFASSSTLHGLAHIFSYERLSLKRALWALCFLGSLAVLLCVCTERVQYYFCYHHVTKLDEVAASQLTFPAVTLCNLNEFRFSQVSKNDLYHAGELLALLNNRYEIPDTQMADEKQLEILQDKANFRSFKPKPFNMREFYDRAGHDIRDMLLSCHFRGEACSAEDFKVVFTRYGKCYTFNSGQDGRPRLKTMKGGTGNGLEIMLDIQQDEYLPVWGETDETSFEAGIKVQIHSQDEPPFIDQLGFGVAPGFQTFVSCQEQRLIYLPSPWGTCNAVTMDSDFFDSYSITACRIDCETRYLVENCNCRMVHMPGDAPYCTPEQYKECADPALDFLVEKDQEYCVCEMPCNLTRYGKELSMVKIPSKASAKYLAKKFNKSEQYIGENILVLDIFFEVLNYETIEQKKAYEIAGLLGDIGGQMGLFIGASILTVLELFDYAYEVIKHRLCRRGKCQKEAKRSSADKGVALSLDDVKRHNPCESLRGHPAGMTYAANILPHHPARGTFEDFTC
B1 was tested, and the “stoichiometry N” value [5] was 3.

B2: TREK1 channel, HA- and/or GFP-tagged (dimer and monomer controls) (natural protein)
chain: MLASASRERPGYTAGVAAPDLLDPKSAAQNSKPRLSFSSKPTVLASRVESDSAINVMKWKTVSTIFLVVVLYLIIGATVFKALEQPQEISQRTTIVIQKQTFIAQHACVNSTELDELIQQIVAAINAGIIPLGNSSNQVSHWDLGSSFFFAGTVITTIGFGNISPRTEGGKIFCIIYALLGIPLFGFLLAGVGDQLGTIFGKGIAKVEDTFIKWNVSQTKIRIISTIIFILFGCVLFVALPAVIFKHIEGWSALDAIYFVVITLTTIGFGDYVAGGSDIEYLDFYKPVVWFWILVGLAYFAAVLSMIGDWLRVISKKTKEEVGEFRAHAAEWTANVTAEFKETRRRLSVEIYDKFQRATSVKRKLSAELAGNHNQELTPCRRTLSVNHLTSEREVLPPLLKAESIYLNGLTPHCAGEDIAVIENMK
In the case of B2, the “stoichiometry N” value [5] is reported as 2.
